Assay results from patent US8106168B2, “Metalloproteinase binding proteins” (Dyax Corp., priority 2005, dated 2012).

Target: MMP-14 (Homo sapiens, UniProt P50281)
Assay: Selection and phage ELISA screening of anti-MMP-14 Fabs
Format: binding
Details: Fab from FAB310 phage display library
Method: Strategy I: A 100-fold excess of the FAB310 library (e.g., an amount of the library that should contain 100 copies of each library member) was depleted of streptavidin-binding antibodies by incubating the library with 200 μL of streptavidin beads for 1 hour at room temperature (RT) with rotation. 500 nM of biotinylated MMP-14 was coupled to streptavidin beads by incubation with 100 μL of streptavidin beads. The MMP-14 beads were then incubated with the streptavidin-depleted library for 1 hour at RT with rotation. The beads were then rinsed three times with 2% MTRIS/0.1% Tween, transferred to a fresh tube and washed an additional three times with 2% MTRIS/0.1% Tween, and transferred to a fresh tube and washed a final time with Round 1 TRIS buffer (50 mM TRIS; 50 mM CaCl2; 150 mM NaCl, pH 7.5).
MMP-14 binding antibodies were eluted from the beads by re-suspension in 1 mL 2% MTRIS containing 2.5 μM TIMP-2 and incubation for 1 hour at RT with rotation. The beads were then washed three times with 2% MTRIS/0.1% Tween, transferred to a fresh tube and washed three times with TRIS/0.1% Tween, and transferred to a fresh tube and washed a final time with TRIS. 1 mL output was used for infection of 9 mL TG1 bacteria (grown to OD600=0.5). The beads were further eluted by suspension in 1 mL 100 mM TEA for 10 minutes. The supernatant was neutralized with 500 μl TRIS/HCl pH 7.5. 1 mL of the second elution was used for infection of 9 mL TG1 bacteria (grown to OD600=0.5).
Two additional rounds of selection were carried out under the same conditions as the first round, except that the streptavidin beads were loaded with 100 nM biotinylated MMP-14 and the number of washes were doubled (6 times with 2% MTRIS/0.1% Tween, 6 times with TRIS/0.1% Tween and 2 times with TRIS), and Round 2/3 Tris buffer (50 mM TRIS; 5 mM CaCl2; 150 mM NaCl pH=7.5) was used for incubation and wash.
TIMP-2 was coupled to carboxylic beads, then complexed with a combination of biotinylated MMP-14 (500 nM each). The complexed beads were incubated with a 100 fold excess of FAB310 library that had been previously depleted by incubation with streptavidin beads and carboxylic beads. Elution/washing was carried out as for Strategy I.
Two additional rounds of selection were carried out, essentially as described for Strategy I, except that only 100 nM of each of MMP-14 were used in the bead complexes.
384-well plates were coated with biotinylated BSA (2 μg/ml in 50 mM TRIS; 5 mM CaCl2; 150 mM NaCl, pH 7.5), then washed 3 times with 50 mM TRIS; 5 mM CaCl2; 150 mM NaCl, pH 7.5; 0.1% Tween. Streptavidin was captured on the coated plates by incubation with 10 μg/mL streptavidin in 50 mM TRIS; 5 mM CaCl2; 150 mM NaCl pH 7.5; 0.5% Gelatin, followed by a wash with 50 mM TRIS; 5 mM CaCl2; 150 mM NaCl pH=7.5; 0.1% Tween. On the day the assay was to be performed, biotinylated MMP-14 (1 μg/ml) was captured in 50 mM TRIS; 5 mM CaCl2; 150 mM NaCl, pH 7.5.
95 clones were picked from each of Round 2 and Round 3 of each selection strategy, producing 12 masterplates. ELISA was run on the MiniTrak-5 deck according to SOP.

Molecule | bind to human MMP-14
M0038-E12: Fab that binds human MMP-14; DNA LV SEQ ID NO: 60, HV SEQ ID NO: 61 (antibody, V domains shown, Synthetically generated oligonucleotide) VL: QDIQMTQSPSSLSASVGDSVTITCRASQNINSYLNWYQQKPGKAPKLLIYVASNLQRGVPSRFGGSGSGTDFTLTITSLQPEDFATYSCQQTYSTPLTFGGGTKVEIK VH: EVQLLESGGGLVQPGGSLRLSCAASGFTFSKYWMMWVRQAPGKGLEWVSVIYPSGGITYYADSVKGRFTISRDNSKNTLYLQMNSLRAEDTAVYYCARLPSWGFDALDIWGQGTMVTVSS | bind to human MMP-14
M0030-D08: Fab that binds human MMP-14; DNA LV SEQ ID NO: 8, HV SEQ ID NO: 9 (antibody, V domains shown) VH: EVQLLESGGGLVQPGGSLRLSCAASGFTFSIYQMYWVRQAPGKGLEWVSSIVPSGGLTKYADSVKGRFTISRDNSKNTLYLQMNSLRAEDTAVYYCARERLRYFDWSDRVGESGDYWGQGTLVTVSS VL: QDIQMTQSPSSLSASVGDRVTMTCRAGQNIKSYLNWYQQKPGKAPQVLIYAASTLQSGVSSRFRGSGSGTHFTLTISDLQPGDSATYYCQQSFSTPRSFGQGTSWRS | bind to human MMP-14
M0038-H06: Fab that binds human MMP-14; DNA LV SEQ ID NO: 66, HV SEQ ID NO: 67 (antibody, V domains shown, Synthetically generated oligonucleotide) VL: QDIQMTQSPGTLSLSPGEGATLSCRASQIINPFYVAWYQQRPGQAPRLLIYASSRRAGGIPDRFSGSASGTDFTLTISRLEPEDFAVYYCQYFYNSMWTFGQGAKVEIR VH: EVQLLESGGGLVQPGGSLRLSCAASGFTFSWYNMTWVRQAPGKGLEWVSRISPSGGDTFYADSVKGRFTISRDNSKNTLYLQMNSLRAEDTAVYYCARAAIAPRPYGMDVWGQGTTVTVSS | bind to human MMP-14
M0039-B07: Fab that binds human MMP-14; DNA LV SEQ ID NO: 68, HV SEQ ID NO: 69 (antibody, V domains shown, Synthetically generated oligonucleotide) VL: QDIQMTQSPLSLSASVGDRVTITCRASQGISNYLAWYQQKPGKVPKLLIYAASTLQSGVPSRFSGSGSGTDFTLTISSLQPEDVATYYCQKYNSARLTFGGGTKVEIK VH: EVQLLESGGGLVQPGGSLRLSCAASGFTFSLYPMLWVRQAPGKGLEWVSGISPSGGQTFYADSVKGRFTISRDNSKNTLYLQMNSLRAEDTAVYYCARMAYYSGYFDLWGRGTLVTVSS | bind to human MMP-14
M0039-D02: Fab that binds human MMP-14; DNA LV SEQ ID NO: 70, HV SEQ ID NO: 71 (protein, Synthetically generated oligonucleotide) chain 1: QDIQMTQSPSSLSASVGDRVTITCRASQSISSYLNWYQQKPGKAPKLLIYDASNLETGVPSRFSGSGSGTDFTFTISSLQPEDIATYYCQQFDDLPLTFAGGTKVELKRT chain 2: EVQLLESGGGLVQPGGSLRLSCAASGFTFSLYVMIWVRQAPGKGLEWVSGIYSSGGDTYYADSVKGRFTISRDNSKNTLYLQMNSLRAEDTAVYYCARGQQLGGGAFDIWGQGTMVTVSS | bind to human MMP-14
M0039-D10: Fab that binds human MMP-14; DNA LV SEQ ID NO: 72, HV SEQ ID NO: 73 (antibody, V domains shown, Synthetically generated oligonucleotide) VL: QDIQMTQSPDTVSFSPGERASLSCRASQSVRSDLAWYQQKPGQAPRLLIYGASNRATGIPVRFSGSGSGTDFTLTISRLEPEDFAVYYCQQYGSSPLFTFGPGTKVDIK VH: EVQLLESGGGLVQPGGSLRLSCAASGFTFSMYNMAWVRQAPGKGLEWVSWIYSSGGLTLYADSVKGRFTISRDNSKNTLYLQMNSLRAEDTAVYYCAKGSNTYYFDASGLGAFNMWGQGTMVTVSS | bind to human MMP-14
